# System: TO-N3-2 (biotin conjugate)
# Test: pull-down binding Z-score (relative to library population); higher = stronger binding
# Conditions: RNA library: Library-2
# How it was run: (§1)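 Streptavidin beads bearing 100 pmol of a biotin-conjugated small molecule were incubated for 60 min at 25 °C with 1 μg of heat-folded, Cy5- or Cy3-end-labelled RNA library in phosphate/NaCl/KCl buffer. Hot SDS eluted the RNA that stayed bound after three washes, and this RNA was hybridised for 20 h at 55.5 °C to a DNA barcode microarray. Binding was expressed as a Z-score against the library mean and standard deviation, after subtraction of a beads-only signal and trimmed averaging of barcoded replicate probes.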
row,Sequence,pull-down binding Z-score
1,UUACCCAACGUCUCUGAGUCUCGGUUUUGAGAGGGUGAGUAA [hsa-mir-7973-1],0.29
2,UUACUCACCCUCUCAAAACCGAGACUCAGAGACGUUGGGUAA [hsa-mir-7973-2],0.271
3,UUACUGCAGGGAUCUUAGCAGUAC [hsa-mir-583],0.435
4,UUAGCCCAGCAAUGGGAGAGUGCUAA [hsa-mir-4636],0.154
5,UUAUACCUGAUGCUCACGUAUAA [hsa-mir-208a],-0.742
6,UUAUCUGUCACCAGUCAGAUAACUGUCACCAGUCAGUUAA [hsa-mir-4764],-0.396
7,UUAUGUUUCUGAUCCGAAUAUAA [hsa-mir-208b],-0.679
8,UUAUUCAGAGAGGCUAGAUCCUCUGUGUUGAGAAGGAUCA [hsa-mir-433],-0.0231
9,UUAUUUGAGAUGAGUUACAUCUUGGAGG [hsa-mir-1204],-0.536
10,UUCACAGACUCUCCAAAAGUCUGAA [hsa-mir-4670],-0.533
11,UUCAGAGUCAAUAUAAUUUUCUAG [hsa-mir-29a],-0.467
12,UUCAGAUUUUGGAACAUUUCGGAUUUUGGA [hsa-mir-1290],-1.15
13,UUCAGCCUAAAGCAAUGAGAAGCCUCUGAAAGGCUGA [hsa-mir-1827],0.76
14,UUCAUAGGGAAGCCUUUCCAUGAA [hsa-mir-4738],-0.574
15,UUCAUGUUCACUGAAAGGUAGAUUUUAAAAACAUGAA [hsa-mir-4790],-0.575
16,UUCAUUCAUUCGUUUGCACAUUCGGUGAA [hsa-mir-493],-0.394
17,UUCAUUUUAUUUAUGAUGAG [hsa-mir-496],-1.33
18,UUCCGGUGAUUAUCACAGCCAUGCCUUUACCUCCAGAA [hsa-mir-4493],-0.00535
19,UUCCUUGUCUGUAGCCAUGUCUAUGGGCUCUUGAG [hsa-mir-571],-0.131

# System: TO-3-N3-2 (biotin conjugate)
# Test: as above
# Conditions: RNA library: Library-2
# How it was run: as §1
row,Sequence,pull-down binding Z-score
1,UGUAAAUAACUACAAUUCUCUUAACUCCGUAGCAGUUGC [hsa-mir-7844],-0.0721
2,UGUAAGUUUGCGAUGAGACACUACA [hsa-mir-144],0.297
3,UGUACAGGUGAGCGGAUGUUCUGCACA [hsa-mir-3120],0.681
4,UGUACGCUUUAUUUGUGACGUAGG [hsa-mir-1197],-0.0204
5,UGUAUAGUAUUAUUCAAUACC [hsa-mir-1912],-0.0289
6,UGUAUAUAGCAUAUGUGUAUACAUACACACACACACACACACACACACA [hsa-mir-8485],-0.16
7,UGUAUGUGUAAAUACAUAUCCACACA [hsa-mir-4789],-0.00888
8,UGUAUUUUUCAGCAAGGCAAGGGCUUUGAUGUCUUGUA [hsa-mir-8065],-0.132
9,UGUCAUUACUUUCAAUGGCA [hsa-mir-548h-2],-0.4
10,UGUCAUUACUUUUAACUGUA [hsa-mir-548h-5],0.219
11,UGUCAUUACUUUUAAUGGUA [hsa-mir-548h-1],-0.357
12,UGUCAUUGAAAGUAAUAGCA [hsa-mir-548h-3],-0.0124
13,UGUCGUAGAAAGUAAUGGCA [hsa-mir-548l],-0.0955
14,UGUCUUGUAGCCAGGAUAUUGUUUUAAAGAA [hsa-mir-4668],0.00983
15,UGUCUUGUGUCUGUAAGUAU [hsa-mir-1275],-0.189
16,UGUCUUUUUUUUUUUCUGAGACA [hsa-mir-1273c],0.127
17,UGUGACCUGGAGCAGCUCAGGAGGGCUUCCUGGGUGAGGUGGCAGGUUACA [hsa-mir-4311],0.183
18,UGUGAGAGCUACUAAGUCUUAUA [hsa-mir-8076],-0.223
19,UGUGCCCCGUACCGGACAGG [hsa-mir-7160],-0.0308
20,UGUGCCUGCCUUCGAAGUGCACGGCAGG [hsa-mir-4297],0.00697
21,UGUGCCUUGCCUUUCCUUUGGCACA [hsa-mir-4438],-0.183
22,UGUGGCAGUGGCAGAGGUCGCUACA [hsa-mir-6856],0.0517
23,UGUGGCCUGGGGGUUGAGGACCCCUGCUCUA [hsa-mir-645],0.303
24,UGUGGCCUUUUUGCCUUUUCUAAAGGCCACAU [hsa-mir-1250],-0.241
25,UGUGGUCACCCACUCU [hsa-mir-4316],-0.0165
26,UGUGGUGGGUGGUGGCCUGCGGUGAGCAGGGCCCUCA [hsa-mir-1228],1.08
27,UGUGGUUGGGGCCAUGGCGGGUGGGCAGCCCAGCCUCUGAGCCUUCCU [hsa-mir-1238],1.74
